# Data published in patent US20140087995A1 (published 2014).
# Numbered stars: 1 amine (or outer) side, 2 acyl side, 3 side chain; on linkers, the order of the positions; unused ones are H or OH. Bridge positions count the residues as written; N and C are the ends. Side chains are listed from the residue outwards. Ends that are not written are not given here. * marks the point of attachment. C20 diacid = O=C(O)CCCCCCCCCCCCCCCCCCC(=O)*; γGlu = O=C(O)[C@H](CCC(=O)[*:2])N[*:1]; AEEA = NCCOCCOCC(=O)O
# T1: human calcitonin receptor (human, UniProt P30988 25-474)
# T1 sequence (looked up): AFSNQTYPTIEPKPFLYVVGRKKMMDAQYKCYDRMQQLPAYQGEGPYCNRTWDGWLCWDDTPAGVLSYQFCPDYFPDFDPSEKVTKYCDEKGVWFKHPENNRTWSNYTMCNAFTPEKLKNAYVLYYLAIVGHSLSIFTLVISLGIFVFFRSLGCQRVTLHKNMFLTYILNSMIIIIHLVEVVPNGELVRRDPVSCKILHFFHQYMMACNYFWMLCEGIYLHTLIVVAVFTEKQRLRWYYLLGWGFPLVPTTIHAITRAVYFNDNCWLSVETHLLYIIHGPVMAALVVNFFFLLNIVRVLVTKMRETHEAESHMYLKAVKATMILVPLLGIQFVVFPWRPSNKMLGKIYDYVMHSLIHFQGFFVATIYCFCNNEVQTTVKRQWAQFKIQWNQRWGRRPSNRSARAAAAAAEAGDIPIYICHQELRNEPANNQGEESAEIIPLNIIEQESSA
# Target: T1, human calcitonin receptor
# Experiment: cell-based or functional assay
row,Binder,hCTR funct. EC50 [nM]
1,"{C20 diacid-γGlu}-KCNTATCATQRLAHFLRHSSPNFGAIPSSTNVGSETY-NH2 (disulfide 2-7; SMILES CC[C@H](C)[C@H](NC(=O)[C@H](C)NC(=O)CNC(=O)[C@H](Cc1ccccc1)NC(=O)[C@H](CC(N)=O)NC(=O)[C@@H]1CCCN1C(=O)[C@H](CO)NC(=O)[C@H](CO)NC(=O)[C@H](Cc1c[nH]cn1)NC(=O)[C@H](CCCNC(=N)N)NC(=O)[C@H](CC(C)C)NC(=O)[C@H](Cc1ccccc1)NC(=O)[C@H](Cc1c[nH]cn1)NC(=O)[C@H](C)NC(=O)[C@H](CC(C)C)NC(=O)[C@H](CCCNC(=N)N)NC(=O)[C@H](CCC(N)=O)NC(=O)[C@@H](NC(=O)[C@H](C)NC(=O)[C@@H]1CSSC[C@H](NC(=O)[C@H](CCCCN)NC(=O)CC[C@H](NC(=O)CCCCCCCCCCCCCCCCCCC(=O)O)C(=O)O)C(=O)N[C@@H](CC(N)=O)C(=O)N[C@@H]([C@@H](C)O)C(=O)N[C@@H](C)C(=O)N[C@@H]([C@@H](C)O)C(=O)N1)[C@@H](C)O)C(=O)N1CCC[C@H]1C(=O)N[C@@H](CO)C(=O)N[C@@H](CO)C(=O)N[C@H](C(=O)N[C@@H](CC(N)=O)C(=O)N[C@H](C(=O)NCC(=O)N[C@@H](CO)C(=O)N[C@@H](CCC(=O)O)C(=O)N[C@H](C(=O)N[C@@H](Cc1ccc(O)cc1)C(N)=O)[C@@H](C)O)C(C)C)[C@@H](C)O, h-amylin derivative; disulfide bridge and C-terminal amide as told for human amylin; also called compound 30)",1.68
2,"K([AEEA-AEEA-γGlu-C20 diacid])CNTATCATQRLANFLRHSSPNFGAIPSSTNVGSETY-NH2 (disulfide 2-7; N-terminus assumed; SMILES CC[C@H](C)[C@H](NC(=O)[C@H](C)NC(=O)CNC(=O)[C@H](Cc1ccccc1)NC(=O)[C@H](CC(N)=O)NC(=O)[C@@H]1CCCN1C(=O)[C@H](CO)NC(=O)[C@H](CO)NC(=O)[C@H](Cc1c[nH]cn1)NC(=O)[C@H](CCCNC(=N)N)NC(=O)[C@H](CC(C)C)NC(=O)[C@H](Cc1ccccc1)NC(=O)[C@H](CC(N)=O)NC(=O)[C@H](C)NC(=O)[C@H](CC(C)C)NC(=O)[C@H](CCCNC(=N)N)NC(=O)[C@H](CCC(N)=O)NC(=O)[C@@H](NC(=O)[C@H](C)NC(=O)[C@@H]1CSSC[C@H](NC(=O)[C@@H](N)CCCCNC(=O)COCCOCCNC(=O)COCCOCCNC(=O)CC[C@H](NC(=O)CCCCCCCCCCCCCCCCCCC(=O)O)C(=O)O)C(=O)N[C@@H](CC(N)=O)C(=O)N[C@@H]([C@@H](C)O)C(=O)N[C@@H](C)C(=O)N[C@@H]([C@@H](C)O)C(=O)N1)[C@@H](C)O)C(=O)N1CCC[C@H]1C(=O)N[C@@H](CO)C(=O)N[C@@H](CO)C(=O)N[C@H](C(=O)N[C@@H](CC(N)=O)C(=O)N[C@H](C(=O)NCC(=O)N[C@@H](CO)C(=O)N[C@@H](CCC(=O)O)C(=O)N[C@H](C(=O)N[C@@H](Cc1ccc(O)cc1)C(N)=O)[C@@H](C)O)C(C)C)[C@@H](C)O, h-amylin derivative; disulfide bridge and C-terminal amide as told for human amylin; also called compound 25)",10
3,"K([γGlu-C20 diacid])CNTATCATQRLANFLRHSSPNFGAIPSSTNVGSETY-NH2 (disulfide 2-7; N-terminus assumed; SMILES CC[C@H](C)[C@H](NC(=O)[C@H](C)NC(=O)CNC(=O)[C@H](Cc1ccccc1)NC(=O)[C@H](CC(N)=O)NC(=O)[C@@H]1CCCN1C(=O)[C@H](CO)NC(=O)[C@H](CO)NC(=O)[C@H](Cc1c[nH]cn1)NC(=O)[C@H](CCCNC(=N)N)NC(=O)[C@H](CC(C)C)NC(=O)[C@H](Cc1ccccc1)NC(=O)[C@H](CC(N)=O)NC(=O)[C@H](C)NC(=O)[C@H](CC(C)C)NC(=O)[C@H](CCCNC(=N)N)NC(=O)[C@H](CCC(N)=O)NC(=O)[C@@H](NC(=O)[C@H](C)NC(=O)[C@@H]1CSSC[C@H](NC(=O)[C@@H](N)CCCCNC(=O)CC[C@H](NC(=O)CCCCCCCCCCCCCCCCCCC(=O)O)C(=O)O)C(=O)N[C@@H](CC(N)=O)C(=O)N[C@@H]([C@@H](C)O)C(=O)N[C@@H](C)C(=O)N[C@@H]([C@@H](C)O)C(=O)N1)[C@@H](C)O)C(=O)N1CCC[C@H]1C(=O)N[C@@H](CO)C(=O)N[C@@H](CO)C(=O)N[C@H](C(=O)N[C@@H](CC(N)=O)C(=O)N[C@H](C(=O)NCC(=O)N[C@@H](CO)C(=O)N[C@@H](CCC(=O)O)C(=O)N[C@H](C(=O)N[C@@H](Cc1ccc(O)cc1)C(N)=O)[C@@H](C)O)C(C)C)[C@@H](C)O, h-amylin derivative; disulfide bridge and C-terminal amide as told for human amylin; also called compound 27) [N^ε1-[(4S)-4-carboxy-4-(19-carboxynonadecanoylamino)butanoyl]-[Arg17,Pro21,Pro27,Glu35]-h-amylin]",3
4,"K([AEEA-γGlu-C20 diacid])CNTATCATQRLANFLRHSSPNFGAIPSSTNVGSETY-NH2 (disulfide 2-7; N-terminus assumed; SMILES CC[C@H](C)[C@H](NC(=O)[C@H](C)NC(=O)CNC(=O)[C@H](Cc1ccccc1)NC(=O)[C@H](CC(N)=O)NC(=O)[C@@H]1CCCN1C(=O)[C@H](CO)NC(=O)[C@H](CO)NC(=O)[C@H](Cc1c[nH]cn1)NC(=O)[C@H](CCCNC(=N)N)NC(=O)[C@H](CC(C)C)NC(=O)[C@H](Cc1ccccc1)NC(=O)[C@H](CC(N)=O)NC(=O)[C@H](C)NC(=O)[C@H](CC(C)C)NC(=O)[C@H](CCCNC(=N)N)NC(=O)[C@H](CCC(N)=O)NC(=O)[C@@H](NC(=O)[C@H](C)NC(=O)[C@@H]1CSSC[C@H](NC(=O)[C@@H](N)CCCCNC(=O)COCCOCCNC(=O)CC[C@H](NC(=O)CCCCCCCCCCCCCCCCCCC(=O)O)C(=O)O)C(=O)N[C@@H](CC(N)=O)C(=O)N[C@@H]([C@@H](C)O)C(=O)N[C@@H](C)C(=O)N[C@@H]([C@@H](C)O)C(=O)N1)[C@@H](C)O)C(=O)N1CCC[C@H]1C(=O)N[C@@H](CO)C(=O)N[C@@H](CO)C(=O)N[C@H](C(=O)N[C@@H](CC(N)=O)C(=O)N[C@H](C(=O)NCC(=O)N[C@@H](CO)C(=O)N[C@@H](CCC(=O)O)C(=O)N[C@H](C(=O)N[C@@H](Cc1ccc(O)cc1)C(N)=O)[C@@H](C)O)C(C)C)[C@@H](C)O, h-amylin derivative; disulfide bridge and C-terminal amide as told for human amylin; also called compound 26)",6.34

# Next, values leading:
row,hCTR funct. EC50 [nM],Binder
1,0.662,"K([AEEA-γGlu-C20 diacid])CNTATCATQRLANFLRHSSPNFGAIPSSTNVGPNTY-NH2 (disulfide 2-7; N-terminus assumed; SMILES CC[C@H](C)[C@H](NC(=O)[C@H](C)NC(=O)CNC(=O)[C@H](Cc1ccccc1)NC(=O)[C@H](CC(N)=O)NC(=O)[C@@H]1CCCN1C(=O)[C@H](CO)NC(=O)[C@H](CO)NC(=O)[C@H](Cc1c[nH]cn1)NC(=O)[C@H](CCCNC(=N)N)NC(=O)[C@H](CC(C)C)NC(=O)[C@H](Cc1ccccc1)NC(=O)[C@H](CC(N)=O)NC(=O)[C@H](C)NC(=O)[C@H](CC(C)C)NC(=O)[C@H](CCCNC(=N)N)NC(=O)[C@H](CCC(N)=O)NC(=O)[C@@H](NC(=O)[C@H](C)NC(=O)[C@@H]1CSSC[C@H](NC(=O)[C@@H](N)CCCCNC(=O)COCCOCCNC(=O)CC[C@H](NC(=O)CCCCCCCCCCCCCCCCCCC(=O)O)C(=O)O)C(=O)N[C@@H](CC(N)=O)C(=O)N[C@@H]([C@@H](C)O)C(=O)N[C@@H](C)C(=O)N[C@@H]([C@@H](C)O)C(=O)N1)[C@@H](C)O)C(=O)N1CCC[C@H]1C(=O)N[C@@H](CO)C(=O)N[C@@H](CO)C(=O)N[C@H](C(=O)N[C@@H](CC(N)=O)C(=O)N[C@H](C(=O)NCC(=O)N1CCC[C@H]1C(=O)N[C@@H](CC(N)=O)C(=O)N[C@H](C(=O)N[C@@H](Cc1ccc(O)cc1)C(N)=O)[C@@H](C)O)C(C)C)[C@@H](C)O, h-amylin derivative; disulfide bridge and C-terminal amide as told for human amylin; also called compound 50)"
2,2.39,"K([AEEA-γGlu-C20 diacid])CNTATCATQRLANFLRHSSPNFGAIPSSTPVGSNTY-NH2 (disulfide 2-7; N-terminus assumed; SMILES CC[C@H](C)[C@H](NC(=O)[C@H](C)NC(=O)CNC(=O)[C@H](Cc1ccccc1)NC(=O)[C@H](CC(N)=O)NC(=O)[C@@H]1CCCN1C(=O)[C@H](CO)NC(=O)[C@H](CO)NC(=O)[C@H](Cc1c[nH]cn1)NC(=O)[C@H](CCCNC(=N)N)NC(=O)[C@H](CC(C)C)NC(=O)[C@H](Cc1ccccc1)NC(=O)[C@H](CC(N)=O)NC(=O)[C@H](C)NC(=O)[C@H](CC(C)C)NC(=O)[C@H](CCCNC(=N)N)NC(=O)[C@H](CCC(N)=O)NC(=O)[C@@H](NC(=O)[C@H](C)NC(=O)[C@@H]1CSSC[C@H](NC(=O)[C@@H](N)CCCCNC(=O)COCCOCCNC(=O)CC[C@H](NC(=O)CCCCCCCCCCCCCCCCCCC(=O)O)C(=O)O)C(=O)N[C@@H](CC(N)=O)C(=O)N[C@@H]([C@@H](C)O)C(=O)N[C@@H](C)C(=O)N[C@@H]([C@@H](C)O)C(=O)N1)[C@@H](C)O)C(=O)N1CCC[C@H]1C(=O)N[C@@H](CO)C(=O)N[C@@H](CO)C(=O)N[C@H](C(=O)N1CCC[C@H]1C(=O)N[C@H](C(=O)NCC(=O)N[C@@H](CO)C(=O)N[C@@H](CC(N)=O)C(=O)N[C@H](C(=O)N[C@@H](Cc1ccc(O)cc1)C(N)=O)[C@@H](C)O)C(C)C)[C@@H](C)O, h-amylin derivative; disulfide bridge and C-terminal amide as told for human amylin; also called compound 49)"
